Data from patent US20250049852A1 (SHANGHAI IASO BIOTECHNOLOGY, published 2025).

Assays:
[1] = target: T1, Biotinylated Recombinant human BAFFR Protein (human, UniProt Q96RJ3 7-71, limits assumed, biotinylated); assay: phage ELISA, coated antigen, detection anti-M13 then HRP anti-mouse IgG
T1 construct: The label says that it carries a his tag; also called BAFFR-his-Bio
T1 sequence (looked up): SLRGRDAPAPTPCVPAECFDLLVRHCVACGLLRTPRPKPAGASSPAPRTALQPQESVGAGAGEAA

[2] = target: T2, Biotinylated Human IL-10 Protein (human, UniProt P22301 19-178, biotinylated); assay: as above
T2 construct: also called IL10-Bio

Streptavidin [3] = target: T3, Streptavidin (UniProt P22629 37-163, limits assumed); assay: as above
T3 construct: also called SA

Human GPRC5D Protein-VLP [4] = target: T4, Human GPRC5D Protein-VLP (human, UniProt Q9NZD1 1-345); assay: as above
T4 construct: Bought reagent; also called GPRC5D-VLP; target antigen

[5] = target: T1, Biotinylated Recombinant human BAFFR …; assay: ELISA, coated antigen, purified IgG-form antibody, detection HRP anti-human IgG
[6] = target: T2, Biotinylated Human IL-10 Protein; assay: as above
Streptavidin [7] = target: T3, Streptavidin; assay: as above
Human GPRC5D Protein-VLP [8] = target: T4, Human GPRC5D Protein-VLP; assay: as above
[9] = target: T5, monkey-derived GPRC5D overexpressed on CHOS cells (CHOS-macaqueGPRC5D) (macaque (monkey-derived)); assay: FACS titration on CHOS-macaque-GPRC5D cells (upper graph)
T5 construct: whole, on cells; also called CHOS-macaqaueGPRC5D; GPRC5D monkey-derived positive cell line

[10] = target: T6, murine-derived GPRC5D overexpressed on CHOS cells (CHOS-mouseGPRC5D) (mouse (murine-derived), UniProt Q9JIL6 1-344); assay: FACS titration on CHOS-mouse-GPRC5D cells (lower graph)
T6 construct: whole, on cells; also called GPRC5D murine-derived positive cell line
T6 sequence (looked up): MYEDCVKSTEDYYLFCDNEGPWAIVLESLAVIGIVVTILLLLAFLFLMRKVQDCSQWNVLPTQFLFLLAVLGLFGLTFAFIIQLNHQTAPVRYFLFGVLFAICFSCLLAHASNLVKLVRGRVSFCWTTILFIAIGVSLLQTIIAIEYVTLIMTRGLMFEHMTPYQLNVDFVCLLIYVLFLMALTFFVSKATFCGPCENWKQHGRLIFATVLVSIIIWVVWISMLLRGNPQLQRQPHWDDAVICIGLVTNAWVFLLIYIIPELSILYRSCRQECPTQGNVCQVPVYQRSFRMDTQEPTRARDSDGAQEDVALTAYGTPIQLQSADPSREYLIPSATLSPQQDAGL

[11] = target: T7, human GPRC5D expressed on the cell surface (CHO-K1-GPRC5D cells; MM1S, U266, 8226, H929 cells) (human, UniProt Q9NZD1 1-345); assay: FACS titration (300 nM to 0.00384 nM) on CHO-K1-GPRC5D cells
T7 construct: whole, on cells; The cell line used is named under assay or readout in each row; also called GPRC5D-positive cells

[12] = target: T7, human GPRC5D expressed on the cell …; assay: cell-based or functional assay
[13] = target: T7, human GPRC5D expressed on the cell …; assay: cell-based or functional assay; remark: listed apart in the source
[14] = target: T7, human GPRC5D expressed on the cell …; assay: cell-based or functional assay; remark: listed apart in the source
[15] = target: T1, Biotinylated Recombinant human BAFFR …; assay: ELISA, coated antigen, detection HRP anti-human IgG
[16] = target: T2, Biotinylated Human IL-10 Protein; assay: as above
Streptavidin [17] = target: T3, Streptavidin; assay: as above

T4 sequence (Q9NZD1 whole entry): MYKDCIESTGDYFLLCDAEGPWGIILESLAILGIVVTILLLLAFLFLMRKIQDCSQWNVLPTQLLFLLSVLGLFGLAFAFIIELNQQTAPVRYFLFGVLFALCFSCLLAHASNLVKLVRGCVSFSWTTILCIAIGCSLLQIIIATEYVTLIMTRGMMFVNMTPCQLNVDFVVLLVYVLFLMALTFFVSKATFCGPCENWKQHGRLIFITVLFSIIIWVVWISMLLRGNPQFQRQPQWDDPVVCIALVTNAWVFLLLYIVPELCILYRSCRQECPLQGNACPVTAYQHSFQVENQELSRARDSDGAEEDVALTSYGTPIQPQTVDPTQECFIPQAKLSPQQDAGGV
T7 sequence (Q9NZD1 whole entry): as above
T2 sequence (P22301 19-178 limits assumed): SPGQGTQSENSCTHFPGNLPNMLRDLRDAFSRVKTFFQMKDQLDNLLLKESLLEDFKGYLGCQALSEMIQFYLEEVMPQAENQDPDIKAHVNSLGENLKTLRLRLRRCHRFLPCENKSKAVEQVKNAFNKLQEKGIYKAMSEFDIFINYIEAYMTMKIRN
T3 sequence (P22629 37-163 limits assumed): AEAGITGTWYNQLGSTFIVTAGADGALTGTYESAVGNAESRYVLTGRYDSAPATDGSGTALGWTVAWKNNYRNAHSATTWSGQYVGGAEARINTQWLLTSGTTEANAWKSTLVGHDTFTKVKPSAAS

B1: clone #18, single domain antibody displayed as monoclonal phage (phage level) (VHH)
VHH: QVQLQQWGAGLLKPSETLSLTCAVYGGSFSGYYWSWIRQPPGKGLEWIGEINHSGSTNYNPSLKSRVTISVDTSKNQFSLKLSSVTAADTAVYYCARARRYGGRTRFDPWGQGTLVTVSS
notes: Tested as a monoclonal phage antibody (M13 display, detected with anti-M13); also called clone number 18
binding result [1]: no binding
binding result [2]: no binding
binding result (Streptavidin [3]): no binding
binding result (Human GPRC5D Protein-VLP [4]): binds

B2: Clone 18, antibody in the IgG form (protein level) (antibody, V domains shown)
VH: B1 VHH
notes: Expressed from an IgG expression plasmid in CHOS cells, purified by Protein A 'into the IgG form', detected with anti-human IgG Fc gamma; also called anti-GPRC5D IgG
binding result [5]: no binding
binding result [6]: no binding
binding result (Streptavidin [7]): no binding
binding result (Human GPRC5D Protein-VLP [8]): binds
EC50 (read off the curve) [9]: ~10 nM
EC50 (read off the curve) [10]: ~2 nM
EC50 [11]: 1.58 nM
TOP (MFI) [11]: 3460 MFI

B3: GPRC5D CAR 2436 (#39), on CAR-T cells (other)
chain: EVQLLESGGGLVQPGGSLRLSCAASGFIFSSYGMGWVRQAPGKGLEWVSSISSSGDYTYYADSVKGRFTISRDNSKNTLYLQMNSLRAEDTAVYYCARMSFRRYDHWGQGTLVTVSSFVPVFLPAKPTTTPAPRPPTPAPTIASQPLSLRPEACRPAAGGAVHTRGLDFACDIYIWAPLAGTCGVLLLSLVITLYCNHRNKRGRKKLLYIFKQPFMRPVQTTQEEDGCSCRFPEEEEGGCELRVKFSRSADAPAYQQGQNQLYNELNLGRREEYDVLDKRRGRDPEMGGKPRRKNPQEGLYNELQKDKMAEAYSEIGMKGERRRGKGHDGLYQGLSTATKDTYDALHMQALPPR
Proliferation fold, 1st round stimulation by target cells 8226 [12]: 10.1 fold
Proliferation fold, 2nd round stimulation by target cells 8226 [12]: 51.2 fold
Proliferation fold, 3rd round stimulation by target cells 8226 [12]: 146 fold
Proliferation fold, 4th round stimulation by target cells 8226 [12]: 330 fold
Proliferation fold, 5th round stimulation by target cells 8226 [12]: 595 fold
Proliferation fold, 6th round stimulation by target cells 8226 [12]: 1160 fold
Proliferation fold, 7th round stimulation by target cells 8226 [12]: 2050 fold
IFN-γ (IFN+/CAR+ %) after co-incubation with 8226-luc (GPRC5D+) cells [13]: 54.8%
IFN-γ (IFN+/CAR+ %) after co-incubation with H929-luc (GPRC5D+) cells [13]: 57.6%
IFN-γ (IFN+/CAR+ %) after co-incubation with MM1.s-luc (GPRC5D+) cells [13]: 50.9%
IFN-γ (IFN+/CAR+ %) after co-incubation with U266-luc (GPRC5D+) cells [13]: 49%
TNF-α (TNFα+/CAR+ %) after co-incubation with 8226-luc (GPRC5D+) cells [13]: 45%
TNF-α (TNFα+/CAR+ %) after co-incubation with H929-luc (GPRC5D+) cells [13]: 51.6%
TNF-α (TNFα+/CAR+ %) after co-incubation with MM1.s-luc (GPRC5D+) cells [13]: 38.5%
TNF-α (TNFα+/CAR+ %) after co-incubation with U266-luc (GPRC5D+) cells [13]: 42.5%
CD107a+/CAR+CD8+% after co-incubation with 8226 (GPRC5D+) cells [14]: 76.5%
CD107a+/CAR+CD8+% after co-incubation with MM.1S (GPRC5D+) cells [14]: 63.5%
CD107a+/CAR+CD8+% after co-incubation with U266 (GPRC5D+) cells [14]: 78.8%

B4: CAR 2254 (Benchmark1), on CAR-T cells (other)
chain: GSQVQLVQSGAEVKKPGASVKVSCKASGYSFTGYTMNWVRQAPGQGLEWMGLINPYNSDTNYAQKLQGRVTMTTDTSTSTAYMELRSLRSDDTAVYYCARVALRVALDYWGQGTLVTVSSGGGGSGGGGSGGGGSDIQMTQSPSSLSASVGDRVTITCKASQNVATHVGWYQQKPGKAPKRLIYSASYRYSGVPSRFSGSGSGTEFTLTISNLQPEDFATYYCQQYNRYPYTFGQGTKLEIKSRFVPVFLPAKPTTTPAPRPPTPAPTIASQPLSLRPEACRPAAGGAVHTRGLDFACDIYIWAPLAGTCGVLLLSLVITLYCNHRNKRGRKKLLYIFKQPFMRPVQTTQEEDGCSCRFPEEEEGGCELRVKFSRSADAPAYQQGQNQLYNELNLGRREEYDVLDKRRGRDPEMGGKPRRKNPQEGLYNELQKDKMAEAYSEIGMKGERRRGKGHDGLYQGLSTATKDTYDALHMQALPPR
Proliferation fold, 1st round stimulation by target cells 8226 [12]: 7.15 fold
Proliferation fold, 2nd round stimulation by target cells 8226 [12]: 41.9 fold
Proliferation fold, 3rd round stimulation by target cells 8226 [12]: 101 fold
Proliferation fold, 4th round stimulation by target cells 8226 [12]: 172 fold
Proliferation fold, 5th round stimulation by target cells 8226 [12]: 240 fold
Proliferation fold, 6th round stimulation by target cells 8226 [12]: 321 fold
Proliferation fold, 7th round stimulation by target cells 8226 [12]: 313 fold
IFN-γ (IFN+/CAR+ %) after co-incubation with 8226-luc (GPRC5D+) cells [13]: 25.1%
IFN-γ (IFN+/CAR+ %) after co-incubation with H929-luc (GPRC5D+) cells [13]: 12.2%
IFN-γ (IFN+/CAR+ %) after co-incubation with MM1.s-luc (GPRC5D+) cells [13]: 31.1%
IFN-γ (IFN+/CAR+ %) after co-incubation with U266-luc (GPRC5D+) cells [13]: 5.25%
TNF-α (TNFα+/CAR+ %) after co-incubation with 8226-luc (GPRC5D+) cells [13]: 12%
TNF-α (TNFα+/CAR+ %) after co-incubation with H929-luc (GPRC5D+) cells [13]: 5.21%
TNF-α (TNFα+/CAR+ %) after co-incubation with MM1.s-luc (GPRC5D+) cells [13]: 17.7%
TNF-α (TNFα+/CAR+ %) after co-incubation with U266-luc (GPRC5D+) cells [13]: 1.12%
CD107a+/CAR+CD8+% after co-incubation with 8226 (GPRC5D+) cells [14]: 45%
CD107a+/CAR+CD8+% after co-incubation with MM.1S (GPRC5D+) cells [14]: 50.7%
CD107a+/CAR+CD8+% after co-incubation with U266 (GPRC5D+) cells [14]: 9.68%

B5: clone #41, single domain antibody displayed as monoclonal phage (phage level) (VHH)
VHH: EVQLLESGGGLVQPGGSLRLSCAASGFSFSGYIMGWVRQAPGKGLEWVSSTSSSGTETYYADSVKGRFTISRDNSKNTLYLQMNSLRAEDTAVYYCARYYSKYGRSYHVDSWGQGTLVTVSS
notes: Tested as a monoclonal phage antibody (M13 display, detected with anti-M13); also called clone number 41
binding result [1]: no binding
binding result [2]: no binding
binding result (Streptavidin [3]): no binding
binding result (Human GPRC5D Protein-VLP [4]): binds

B6: Clone 41, antibody in the IgG form (protein level) (antibody, V domains shown)
VH: B5 VHH
notes: as for B2
binding result [5]: no binding
binding result [6]: no binding
binding result (Streptavidin [7]): no binding
binding result (Human GPRC5D Protein-VLP [8]): binds
EC50 (read off the curve) [9]: ~7 nM
binding result [10]: binds
EC50 [11]: 41 nM
TOP (MFI) [11]: 3690 MFI

B7: clone #39, single domain antibody displayed as monoclonal phage (phage level) (VHH)
VHH: EVQLLESGGGLVQPGGSLRLSCAASGFIFSSYGMGWVRQAPGKGLEWVSSISSSGDYTYYADSVKGRFTISRDNSKNTLYLQMNSLRAEDTAVYYCARMSFRRYDHWGQGTLVTVSS
notes: Tested as a monoclonal phage antibody (M13 display, detected with anti-M13); also called clone number 39
binding result [1]: no binding
binding result [2]: no binding
binding result (Streptavidin [3]): no binding
binding result (Human GPRC5D Protein-VLP [4]): binds

B8: Clone 39, antibody in the IgG form (protein level) (antibody, V domains shown)
VH: B7 VHH
notes: as for B2
binding result [5]: no binding
binding result [6]: no binding
binding result (Streptavidin [7]): no binding
binding result (Human GPRC5D Protein-VLP [8]): binds
binding result [10]: binds
EC50 [11]: 6.93 nM
TOP (MFI) [11]: 2800 MFI

B9: Positive Benchmark1 Ab (GC5B596) (antibody)
scFv: GSQVQLVQSGAEVKKPGASVKVSCKASGYSFTGYTMNWVRQAPGQGLEWMGLINPYNSDTNYAQKLQGRVTMTTDTSTSTAYMELRSLRSDDTAVYYCARVALRVALDYWGQGTLVTVSSGGGGSGGGGSGGGGSDIQMTQSPSSLSASVGDRVTITCKASQNVATHVGWYQQKPGKAPKRLIYSASYRYSGVPSRFSGSGSGTEFTLTISNLQPEDFATYYCQQYNRYPYTFGQGTKLEIKSR
notes: […] variable region from GC5B596 of CN 109715667 A. As positive control antibody it was detected with anti-human IgG, so it carried a human constant part; also called control antibody benchmark 1
binding result [15]: no binding
binding result [16]: no binding
binding result (Streptavidin [17]): no binding
